From article PMC5595328

Tests used:
[1] = system: VarR (Vibrio cholerae O1 biovar El Tor N16961); experiment: competition; conditions: 50 mM Tris-HCl pH 7.5, 5 mM EDTA, 1 mM DTT, 100 ug/ml BSA, 5% glycerol, on ice 10 min; 4% polyacrylamide gel
[2] = target: VarF ATPase subunit of the VarDEF ABC transporter (Vibrio cholerae (strain CVD101 chromosomal DNA)); experiment: SEC; Superdex200 PrepGrade HiLoad 16/60, 20 mM Tris-HCl pH 8.25, 50 mM NaCl, 10% glycerol, 1 ml/minute; Mr from a calibration curve of standards
[3] = target: VarG metallo-β-lactamase (Vibrio cholerae (strain CVD101 chromosomal DNA)); experiment: AUC
[4] = target: VarG metallo-β-lactamase (Vibrio cholerae (strain CVD101 chromosomal DNA)); experiment: SEC; Superdex200 PrepGrade HiLoad 16/60, 20 mM Tris-HCl pH 8.25, 50 mM NaCl, 10% glycerol, 1 ml/minute; Mr from a calibration curve of standards
[5] = target: VarG metallo-β-lactamase (Vibrio cholerae (strain CVD101 chromosomal DNA)); experiment: AUC; sedimentation velocity, 42,000 rpm, 20°C, 280 nm, SEDFIT c(s, fr) and c(s, M)
[6] = target: VarG metallo-β-lactamase (Vibrio cholerae (strain CVD101 chromosomal DNA)); experiment: intact protein ESI Q-TOF mass spectrometry; putative dimer peak from SEC infused directly, positive ion mode, MaxEnt1 deconvolution; 10 μg/mL in the methods, 50 μg/mL in the legend

Q: For 30 bp varR-varG IR, which binding signal [1] is on record?
A: 1 ng

Q: With “VarF ATPase subunit of the VarDEF ABC transporter (enzyme)” as the substance, how does the stoichiometry N [2] read?
A: 2

Q: Which stoichiometry N [3] does the source give for VarG metallo-β-lactamase (enzyme) here?
A: 2

Q: What about the stoichiometry N [4] of the same substance?
A: 2

Q: And the stoichiometry N [5]?
A: 2

Q: What about the stoichiometry N [6] of the same substance?
A: 2
